{
  "source": "paper PMC3361065",
  "about": "(Biochemistry, 2012)",
  "key": {"[1]": {"target": "T1, yeast MtRNAP with residues 1-358 deleted (ΔN1) (yeast, UniProt P13433 359-1351)", "T1 sequence (looked up)": "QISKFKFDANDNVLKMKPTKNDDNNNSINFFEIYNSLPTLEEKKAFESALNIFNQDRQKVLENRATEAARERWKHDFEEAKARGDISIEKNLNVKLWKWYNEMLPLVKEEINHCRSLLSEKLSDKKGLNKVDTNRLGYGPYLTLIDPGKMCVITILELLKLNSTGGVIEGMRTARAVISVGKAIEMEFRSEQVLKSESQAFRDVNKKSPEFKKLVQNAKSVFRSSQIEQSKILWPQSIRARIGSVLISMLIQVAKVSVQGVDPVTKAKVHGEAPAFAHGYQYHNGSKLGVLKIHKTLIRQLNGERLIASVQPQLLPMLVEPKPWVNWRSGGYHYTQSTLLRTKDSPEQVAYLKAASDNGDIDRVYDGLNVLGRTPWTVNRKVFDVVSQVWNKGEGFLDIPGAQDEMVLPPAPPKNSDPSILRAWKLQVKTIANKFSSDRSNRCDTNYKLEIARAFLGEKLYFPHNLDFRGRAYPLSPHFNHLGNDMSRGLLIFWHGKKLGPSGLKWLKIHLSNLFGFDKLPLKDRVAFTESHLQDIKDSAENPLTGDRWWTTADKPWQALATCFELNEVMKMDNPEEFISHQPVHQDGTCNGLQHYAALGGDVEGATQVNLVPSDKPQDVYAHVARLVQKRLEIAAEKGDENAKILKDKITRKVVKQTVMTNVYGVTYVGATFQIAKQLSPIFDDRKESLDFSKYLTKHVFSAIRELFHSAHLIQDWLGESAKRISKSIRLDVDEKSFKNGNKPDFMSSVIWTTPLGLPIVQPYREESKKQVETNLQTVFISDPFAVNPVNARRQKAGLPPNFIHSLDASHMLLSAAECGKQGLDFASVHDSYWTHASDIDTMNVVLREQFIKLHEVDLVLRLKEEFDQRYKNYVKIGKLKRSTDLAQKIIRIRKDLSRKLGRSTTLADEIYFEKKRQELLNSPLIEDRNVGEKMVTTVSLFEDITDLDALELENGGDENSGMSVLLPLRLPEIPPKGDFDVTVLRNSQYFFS", "assay": "ultrafiltration retention"}, "[2]": {"target": "T2, yeast MtRNAP with residues 1-264 deleted (ΔN2) (yeast, UniProt P13433 265-1351)", "T2 sequence (looked up)": "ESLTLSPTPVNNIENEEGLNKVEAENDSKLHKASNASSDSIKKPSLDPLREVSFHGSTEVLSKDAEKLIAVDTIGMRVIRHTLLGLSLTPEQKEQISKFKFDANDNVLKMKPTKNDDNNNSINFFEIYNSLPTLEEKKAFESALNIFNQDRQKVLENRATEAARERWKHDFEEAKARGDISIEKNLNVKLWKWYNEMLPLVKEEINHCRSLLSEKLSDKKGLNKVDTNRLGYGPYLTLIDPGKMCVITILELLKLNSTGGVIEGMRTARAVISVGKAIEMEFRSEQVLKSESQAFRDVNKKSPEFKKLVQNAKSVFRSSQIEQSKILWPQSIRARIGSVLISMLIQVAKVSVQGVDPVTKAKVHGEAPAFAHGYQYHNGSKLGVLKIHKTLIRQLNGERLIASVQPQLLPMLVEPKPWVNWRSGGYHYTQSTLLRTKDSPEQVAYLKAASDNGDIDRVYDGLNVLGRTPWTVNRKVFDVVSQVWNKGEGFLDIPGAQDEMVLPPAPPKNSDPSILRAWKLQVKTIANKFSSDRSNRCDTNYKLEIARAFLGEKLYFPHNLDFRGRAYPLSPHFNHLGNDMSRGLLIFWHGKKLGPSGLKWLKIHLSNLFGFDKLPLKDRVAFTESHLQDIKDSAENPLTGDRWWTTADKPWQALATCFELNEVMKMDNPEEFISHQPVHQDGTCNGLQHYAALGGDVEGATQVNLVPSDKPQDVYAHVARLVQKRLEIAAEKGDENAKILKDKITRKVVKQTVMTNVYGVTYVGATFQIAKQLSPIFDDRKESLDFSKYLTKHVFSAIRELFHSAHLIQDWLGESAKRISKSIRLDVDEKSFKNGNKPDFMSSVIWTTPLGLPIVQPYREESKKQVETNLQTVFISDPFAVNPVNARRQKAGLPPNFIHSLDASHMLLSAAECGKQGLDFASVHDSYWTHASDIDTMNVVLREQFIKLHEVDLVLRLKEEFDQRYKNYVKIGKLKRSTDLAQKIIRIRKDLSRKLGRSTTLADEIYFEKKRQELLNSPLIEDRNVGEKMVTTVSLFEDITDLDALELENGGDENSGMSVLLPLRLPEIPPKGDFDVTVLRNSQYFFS", "assay": "native gel or EMSA"}, "[3]": {"target": "yeast mitochondrial RNA polymerase (scMtRNAP) WT;MTF1 (yeast mitochondrial transcription factor) (Saccharomyces cerevisiae?;Saccharomyces …, UniProt P13433;P14908 1-1351;1-341, |)", "sequence (P13433 whole entry, chain 1 of 2, one chain of several)": "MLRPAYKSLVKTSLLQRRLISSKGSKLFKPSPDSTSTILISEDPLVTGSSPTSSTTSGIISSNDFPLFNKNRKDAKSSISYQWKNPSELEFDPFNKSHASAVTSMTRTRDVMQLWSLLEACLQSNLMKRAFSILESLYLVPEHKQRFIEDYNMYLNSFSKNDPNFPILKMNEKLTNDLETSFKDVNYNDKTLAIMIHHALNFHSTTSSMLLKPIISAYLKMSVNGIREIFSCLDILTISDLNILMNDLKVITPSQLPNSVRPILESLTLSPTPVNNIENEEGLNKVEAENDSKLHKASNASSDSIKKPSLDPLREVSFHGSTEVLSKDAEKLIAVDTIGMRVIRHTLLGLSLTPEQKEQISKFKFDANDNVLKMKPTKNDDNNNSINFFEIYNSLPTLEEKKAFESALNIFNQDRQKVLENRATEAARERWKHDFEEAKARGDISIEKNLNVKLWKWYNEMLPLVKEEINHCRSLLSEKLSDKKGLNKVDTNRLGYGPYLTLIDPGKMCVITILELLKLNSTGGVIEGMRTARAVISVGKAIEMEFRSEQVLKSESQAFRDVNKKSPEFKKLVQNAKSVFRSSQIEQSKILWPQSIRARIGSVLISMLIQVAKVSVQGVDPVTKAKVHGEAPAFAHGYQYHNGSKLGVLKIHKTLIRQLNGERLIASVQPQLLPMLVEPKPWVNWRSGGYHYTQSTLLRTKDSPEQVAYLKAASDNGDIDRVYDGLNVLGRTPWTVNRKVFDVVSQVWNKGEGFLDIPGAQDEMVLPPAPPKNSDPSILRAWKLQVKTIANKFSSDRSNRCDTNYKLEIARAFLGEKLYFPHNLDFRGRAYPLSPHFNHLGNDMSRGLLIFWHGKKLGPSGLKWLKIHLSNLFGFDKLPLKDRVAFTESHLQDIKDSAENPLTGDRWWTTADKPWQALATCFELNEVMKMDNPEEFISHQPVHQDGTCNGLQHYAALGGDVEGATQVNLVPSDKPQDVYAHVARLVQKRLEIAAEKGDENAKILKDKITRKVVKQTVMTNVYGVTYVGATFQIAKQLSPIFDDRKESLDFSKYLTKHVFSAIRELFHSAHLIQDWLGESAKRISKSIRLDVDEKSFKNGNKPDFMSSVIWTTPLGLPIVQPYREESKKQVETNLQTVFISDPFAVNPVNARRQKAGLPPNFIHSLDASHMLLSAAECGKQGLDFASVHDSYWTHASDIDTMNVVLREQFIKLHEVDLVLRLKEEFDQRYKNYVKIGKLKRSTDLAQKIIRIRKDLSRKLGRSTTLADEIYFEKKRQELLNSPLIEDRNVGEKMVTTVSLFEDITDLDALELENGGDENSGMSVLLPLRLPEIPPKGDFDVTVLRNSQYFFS", "assay": "EMSA"}},
  "data": [
    {"binder": "yeast mitochondrial transcription factor MTF1 (natural protein, UniProt P14908 1-341, looked up) MSVPIPGIKDISKLKFFYGFKYLWNPTVYNKIFDKLDLTKTYKHPEELKVLDLYPGVGIQSAIFYNKYCPRQYSLLEKRSSLYKFLNAKFEGSPLQILKRDPYDWSTYSNLIDEERIFVPEVQSSDHINDKFLTVANVTGEGSEGLIMQWLSCIGNKNWLYRFGKVKMLLWMPSTTARKLLARPGMHSRSKCSVVREAFTDTKLIAISDANELKGFDSQCIEEWDPILFSAAEIWPTKGKPIALVEMDPIDFDFDVDNWDYVTRHLMILKRTPLNTVMDSLGHGGQQYFNSRITDKDLLKKCPIDLTNDEFIYLTKLFMEWPFKPDILMDFVDMYQTEHSG", "values": [
      {"measurement": "binding result", "setting": "[1]", "value": "binds"},
      {"measurement": "binding result", "setting": "[2]", "value": "binds"}
    ]},
    {"binder": "33 bp Duplex promoter (dsDNA) DNA 1: CGCGTAAAACTATTCTTTATTACTTATATCGCG DNA 2: CGCGATATAAGTAATAAAGAATAGTTTTACGCG", "values": [
      {"measurement": "Kd", "setting": "[3]", "value": 0.48, "unit": "µM"}
    ]}
  ]
}
